According to PMC12028538, “The Characterization of the Purine Nucleoside Phosphorylase from Agaricus bisporus and Its Potential Application in Reducing Purine Content in Beer” (Journal of Fungi, 2025):

Substrate: OC[C@H]1O[C@@H](n2cnc3c(O)ncnc32)[C@H](O)[C@@H]1O
Assay: HPLC of hypoxanthine formed, Michaelis-Menten fit
Assay type: biochemical, Agaricus bisporus
Details: phosphorolysis, potassium phosphate co-substrate (50 mM in the standard assay), pH 7.0, 60 °C, 0–16 mM inosine, b52 prints the unit as µmol

B1: AbPNP (Agaricus bisporus var. burnettii JB137-S8) (protein)
chain: MKTNILSTVEYIRSQLPPELQQPRVGIVCGSGLSGLAGIIQNIHTIPYANIPGFGTSTVPGHRSELAFGLLGKNGVPVVAMLGRFHFYEGHPLSTVVYPIRVMARLGITEILITNAAGSLNPDIPTGTIVVVHDHIAFPGMAGTNPLMGPQTSPEHPRFLALSDAYSPSLRRLLFLAAHQLSLSKSALAEGTYAWVSGPNYETPAEGILLRSIGVDVVGMSTVPEVLVAREEGLKVMVLSLVTNLVVIPPSYKSIREEVEAELAGQSFVTPEEQVVSHDEVLAVGKEKAEVIKSLVQRVVELLS
notes: N-terminal 6xHis tag; codon-optimized gene in pPIC9K, Pichia pastoris GS115, Ni-NTA purified
Km: 7.10 µM
kcat: 14.38 s⁻¹
